Residue numbers refer to the chain shown, from its start. In names and notes the source's numbering stands.
Assays:
[1] = test system: CyPPO16; assay: Herbicide tolerance test of CyPPO16 wild type and variants in PPO-deficient E. coli BT3(ΔPPO); format: cell-based, Spirulina subsalsa; settings: BT3(ΔPPO) transformants, two or more amino acid mutations, dark; for Herbicide tolerance, tiafenacil: 37° C., 16 to 20 hours, relative to wild type at highest concentration (50, 200 μM); for Herbicide tolerance, flumioxazin: relative to wild type at highest concentration (25, 50 μM); for Herbicide tolerance, sulfentrazone: relative to wild type at highest concentration (2000, 4000 μM)
Procedure: The mutated CyPPO gene obtained from the Example 2 was transformed to BT3 (ΔPPO) strain which is deficient of PPO activity and cultured in LB media with PPO-inhibiting herbicide, thereby examining whether growth of transformed BT3 was not inhibited.
BT3 competent cells were transformed with the pET303-CyPPO16 and pET303-CyPPO17 plasmids and those with a mutation(s) constructed in Example 2 respectively, and were cultured in LB agar media containing carbenicillin (Gold Biotechnology, Co., Ltd.).
Single colony of E. coli transformed with each CyPPO gene was cultured in 3 ml of LB broth containing carbenicillin overnight, and then was subcultured until absorbance (0D600) reached 0.5 to 1. Then, it was diluted with LB broth to OD600=0.5. Again, the diluted solution was serially diluted 4 times by a factor of one tenth.
The LB agar media (LB 25 g/l, Bacto agar 15 g/l) containing carbenicillin (100 μg/ml) and 0 to 4,000 μM of various herbicides dissolved in DMSO was prepared. Next, 10 μl of each diluted solution was dropped on the plate and cultured at 37° C. under light (Tables 7 and 9, FIGS. 2 to 6, and 18 to 22) or dark (Tables 8 and 10, FIGS. 7 to 17, and 23 to 33) for 16 to 20 hours. Then, extent of tolerance was evaluated.
The extent of herbicide tolerance of the mutated genes was evaluated by comparing that of mutated genes with that of wild type. The relative tolerance was represented with “+” as a factor of 10 times. Evaluation result was listed in Tables 7 to10 and FIGS. 2 to 33:
In Tables 7 to 10, tolerance level was presented as of tolerance of wild type and of variants equivalent to that of wild type, and was done as ‘+’ per each 10 fold resistance until ‘+++++’ as maximal resistance. (Tolerance level was evaluated by relative growth level of variants to that of wild type in the media containing highest concentration of herbicide; ‘+’=1-9 fold higher tolerance, ‘++’=10-99 fold higher tolerance, ‘+++’=100-999 fold higher tolerance, ‘++++’=1,000-9,999 fold higher tolerance, ‘+++++’=more than 10,000 fold higher tolerance)
The concentrations of herbicides were written above the photographs of tolerance test. A dilution series (0D600=0.5, 0.05, 0.005, 0.0005, 0.00005) was made and spotted on LB agar plates supplemented with herbicides.

[2] = test system: CyPPO16; assay: PPO enzyme activity of MBP-fused CyPPO16 wild type and variants; format: biochemical, Spirulina subsalsa; settings: PPO enzyme activity relative to wild type; MBP-fused protein, 50 μM protoporphyrinogen IX, room temperature, 30 min
Procedure: Thus, PPO proteins of wild type and variants were expressed as fused to MBP and were used for experiments.
The following process for purification of PPO protein was performed in a 4° C. cold room. Amylose resin (NEB) was packed to 1.5×15 cm column (Bio-Rad, Econo Columns 1.5×15 cm, glass chromatography column, max. vol), and the obtained protein extracts were loaded to the column at a flow rate of 0.2 ml/min. The column was washed with 3 column volumes of buffer and the presence of protein in the washing solution was examined. When the protein was no longer detected, the washing procedure was terminated. Then, the MBP-PPO protein was eluted with approximately 2 column volumes of buffer containing 20 mM maltose. The protein concentration of each eluent was determined and the elution was stopped when the protein was no longer detected. Ten microliter of each fraction was investigated for protein quantification and SDS-PAGE analysis. The highly pure fractions of PPO protein variants were used for the enzyme assay.
Since protoporphyrinogen IX, a substrate of PPO protein, was not commercially available, it was chemically synthesized in the laboratory. Overall process was performed in dark under nitrogen stream. […] of protoporphyrin IX was dissolved in 20 ml of 20% (v/v) EtOH, and stirred under dark condition for 30 minutes. The obtained protoporphyrin IX solution was put into a 15 ml screw tube in an amount of 800 μl, and flushed with nitrogen gas for 5 minutes. To this, 1.5 g of sodium amalgam was added and vigorously shaken for 2 minutes. The lid was opened to exhaust hydrogen gas in the tube. Thereafter, the lid was closed and incubated for 3 minutes. The protoporphyrinogen IX solution was filtered using syringe and cellulose membrane filter. […] To determine the enzyme activity of PPO protein, a reaction mixture was prepared with the following composition (based on 10 ml): 50 mM Tris-Cl (pH 8.0); 50 mM NaCl; 0.04% (v/v) Tween 20; 40 mM glucose (0.072 g); 5 units glucose oxidase (16.6 mg); and 10 units catalase (1 μl).
Hundred and eighty microliters of a reaction mixture containing the purified PPO protein were placed in 96 well plates and 20 μl of […] were added. […] The reaction proceeded at room temperature for 30 min and the fluorescence of protoporphyrin IX was measured using Microplate reader (Sense, Hidex) (excitation: 405 nm; emission: 633 nm). […] To this, 2.7 N HCl was added, and the absorbance at 408 nm was measured. A standard curve was generated using standard protoporphyrin IX, and PPO activity was measured by calibration of protoporphyrin IX using the standard curve of protoporphyrin IX.
Activities of variants were presented relatively compared to that of wild type.

B1: V305M + F360M: CyPPO16 variant (protein)
chain: MLDSLIVGAGISGLSAAHTLQKQQTQFLVTESQGRVGGNITTNRQGDYLWEEGPNSFAPTEDLLRLAVEVGLKEDLVFADRRLPRFVYWNQQLHPVPMSPPAALKTQLLSEAGKWRAALGALGFVGGLVGREEETVRQFFTRHLGTEVTERLVAPFVSGVYAGDVDQLSAQAAFRRVFEFAQLGGGLAAGGILARRQAPPKAPPDPSLPETKTGQLGSFREGLEMLPRAIASQLGDRLKLQWRLTHLEITPQQTYLAHFNTPDGPQQIATRTLILTTPAPITADLLKPLTPALHGVLKEIYYPPMACVVLAYPRAASARPLEGFGHLIPRNQGIRTLGTIWSSCLFPGRTPEGEHLLTNMIGGATDPGIAQLDPEEIAQAVHQDLCKILIRPEFTPKILAVRLWKQAIPQYTLGHLQRLATLEQELSKFPGLHILANYTDGVALGDCVKRGVAVAQKIRSRE
modifications: Synthetic (Protoporphyrinogen IX oxidase (CyPPO16) of Spirulina subsalsa)
notes: CyPPO16 variant
Which results are given for B1?
Herbicide tolerance, tiafenacil [1]: +++ (‘+++’=100-999 fold higher tolerance); Herbicide tolerance, flumioxazin [1]: ++++ (‘++++’=1,000-9,999 fold higher tolerance); Herbicide tolerance, sulfentrazone [1]: + (‘+’=1-9 fold higher tolerance); Activity (%) [2]: 35%

B2: V160C + A162C + V305M + L327T + F360M (protein)
chain: B1 chain with V160C, A162C, L327T
modifications: Synthetic (Protoporphyrinogen IX oxidase (CyPPO16) of Spirulina subsalsa)
Which “Herbicide tolerance, tiafenacil” value [1] does the source give for B2 here?
The value was “+++++ (‘+++++’=more than 10,000 fold higher tolerance)”.

And the “Herbicide tolerance, flumioxazin” value [1]?
Its value is “+++++ (‘+++++’=more than 10,000 fold higher tolerance)”.

What about the “Herbicide tolerance, sulfentrazone” value [1] of the same molecule?
The value was “+++++ (‘+++++’=more than 10,000 fold higher tolerance)”.

B3: F360M: CyPPO16 variant (protein)
chain: B1 chain with M305V
modifications: Synthetic (Protoporphyrinogen IX oxidase (CyPPO16) of Spirulina subsalsa)
notes: CyPPO16 variant
Which “Activity (%)” value [2] does the source give for B3 here?
Its value is 83%.

B4: F324V: CyPPO16 variant (protein)
chain: B1 chain with M305V, F324V, M360F
modifications: Synthetic (Protoporphyrinogen IX oxidase (CyPPO16) of Spirulina subsalsa)
notes: CyPPO16 variant
With B4 as the molecule, how does the “Activity (%)” value [2] read?
The value was 23%.

B5: R85A + V160C + A162L + V305M + F360M (protein)
chain: B1 chain with R85A, V160C, A162L
modifications: Synthetic (Protoporphyrinogen IX oxidase (CyPPO16) of Spirulina subsalsa)
For B5, which “Herbicide tolerance, tiafenacil” value [1] is on record?
The value was “+++++ (‘+++++’=more than 10,000 fold higher tolerance)”.

What about the “Herbicide tolerance, flumioxazin” value [1] of the same molecule?
Its value is “+++++ (‘+++++’=more than 10,000 fold higher tolerance)”.

And the “Herbicide tolerance, sulfentrazone” value [1]?
The value was “+++++ (‘+++++’=more than 10,000 fold higher tolerance)”.

B6: V305M: CyPPO16 variant (protein)
chain: B1 chain with M360F
modifications: Synthetic (Protoporphyrinogen IX oxidase (CyPPO16) of Spirulina subsalsa)
notes: CyPPO16 variant
For B6, which “Activity (%)” value [2] is on record?
The value was 72%.

B7: L327T + F360M: CyPPO16 variant (protein)
chain: B1 chain with M305V, L327T
modifications: Synthetic (Protoporphyrinogen IX oxidase (CyPPO16) of Spirulina subsalsa)
notes: CyPPO16 variant
For B7, which “Herbicide tolerance, tiafenacil” value [1] is on record?
Its value is “++++ (‘++++’=1,000-9,999 fold higher tolerance)”.

And the “Herbicide tolerance, flumioxazin” value [1]?
Its value is “++++ (‘++++’=1,000-9,999 fold higher tolerance)”.

What about the “Herbicide tolerance, sulfentrazone” value [1] of the same molecule?
The value was “++ (‘++’=10-99 fold higher tolerance)”.

What about the “Activity (%)” value [2] of the same molecule?
Its value is 21%.

B8: L327T: CyPPO16 variant (protein)
chain: B1 chain with M305V, L327T, M360F
modifications: Synthetic (Protoporphyrinogen IX oxidase (CyPPO16) of Spirulina subsalsa)
notes: CyPPO16 variant
For B8, which “Activity (%)” value [2] is on record?
The value was 68%.

B9: F360V: CyPPO16 variant (protein)
chain: B1 chain with M305V, M360V
modifications: Synthetic (Protoporphyrinogen IX oxidase (CyPPO16) of Spirulina subsalsa)
notes: CyPPO16 variant
B9 was tested. Which “Activity (%)” value [2] did it give?
Its value is 69%.

B10: A162C + L327T + F360M: CyPPO16 variant (protein)
chain: B1 chain with A162C, M305V, L327T
modifications: Synthetic (Protoporphyrinogen IX oxidase (CyPPO16) of Spirulina subsalsa)
notes: CyPPO16 variant
For B10, which “Herbicide tolerance, tiafenacil” value [1] is on record?
Its value is “+++++ (‘+++++’=more than 10,000 fold higher tolerance)”.

What about the “Herbicide tolerance, flumioxazin” value [1] of the same molecule?
Its value is “+++++ (‘+++++’=more than 10,000 fold higher tolerance)”.

What about the “Herbicide tolerance, sulfentrazone” value [1] of the same molecule?
Its value is “++++ (‘++++’=1,000-9,999 fold higher tolerance)”.

And the “Activity (%)” value [2]?
The value was 17%.

B11: R85A + V160C + A162C + V305M + L327T + F360M: CyPPO16 variant (protein)
chain: B1 chain with R85A, V160C, A162C, L327T
modifications: Synthetic (Protoporphyrinogen IX oxidase (CyPPO16) of Spirulina subsalsa)
notes: CyPPO16 variant
For B11, which “Activity (%)” value [2] is on record?
Its value is 13%.

B12: F360T: CyPPO16 variant (protein)
chain: B1 chain with M305V, M360T
modifications: Synthetic (Protoporphyrinogen IX oxidase (CyPPO16) of Spirulina subsalsa)
notes: CyPPO16 variant
How did the “Activity (%)” value [2] turn out when B12 was run?
Its value is 25%.

B13: R85A: CyPPO16 variant (protein)
chain: B1 chain with R85A, M305V, M360F
modifications: Synthetic (Protoporphyrinogen IX oxidase (CyPPO16) of Spirulina subsalsa)
notes: CyPPO16 variant
Which “Activity (%)” value [2] does the source give for B13 here?
Its value is 94%.

— patent publication US11219221B2 (FarmHannong Co., Ltd., priority 2017, dated 2022)
